Reference: US11110182B2, “Multifunctional RNA nanoparticles and methods for treating cancer and therapeutic resistant cancer” (University of Cincinnati, priority 2016, dated 2021)

B1: pRNA-HER2apt-siMED1: 3-WJ pRNA nanoparticle bearing a HER2-targeting RNA aptamer and two different MED1 siRNAs; strands p1 SEQ ID NO: 3, p2 SEQ ID NO: 4 (nucleic acid)
chain 1: GGACAGUGAAAGUGAGUCAAAGGAUCAAUCAUGGCCAAAGAUGUUACUUUGAGAGCCUU
chain 2: GGCUCUCAAAGUAACAUCUAAGGCCAUGUGUAUGUGGGGGGAGGACGAUGCGGUCUGCUGUGCUUGAUAUGCCCCAGACGACUCGCCCCCCACAUACUUUGUUGAUCCAAUGACUCACUUUCACUGUCCUU
modifications: 2'-F modification; third strand may lack entry; pRNA-HER2apt-siMED1, p1; pRNA-HER2apt-siMED1, p2
B2: pRNA-HER2apt^mut-siMED1: control pRNA nanoparticle with mutant HER2 aptamer; strands p1 SEQ ID NO: 5, p2 SEQ ID NO: 6 (nucleic acid)
chain 1: B1 chain 1
chain 2: GGCUCUCAAAGUAACAUCUAAGGCCAUGUGUAUGUGGGAUGAGGAGUAUGAAGAUACCUGUACUUGAUAUGCCCCAGACGACAUUCCCCCCACAUACUUUGUUGAUCCAAUGACUCACUUUCACUGUCCUU
modifications: pRNA-HER2apt(mut)-siMED1, p1; pRNA-HER2apt(mut)-siMED1, p2

Tested on: MED1
Assay: MED1 protein level by western blotting in BT474 cells
Format: cell-based, human
Details: 48 h; for MED1 protein level after transfection with lipofectamine 2000: BT474, transfected
Method: FIG. 3A) BT474 cells were incubated with 10 μg/mL control and pRNA-HER2apt-siMED1 nanoparticles for 48 h, and MED1 mRNA level was determined by real-time PCR. FIG. 3B) BT474 cells were incubated directly with (as indicated by -) or transfected with indicated pRNAs using lipofectamine 2000. At 48 h post treatment, MED1 protein levels were determined by western blotting. FIG. 3C) BT474 cells were treated with 10 μg/mL pRNA nanoparticles for 48 h and assayed for cell viability by MTT assay. FIG. 3D) Cells were treated as above and seeded for migration, and FIG. 3E) invasion transwell assays. Scale bar: 50 μm. FIG. 3F) After pRNA treatment for 48 h, the mRNA levels of ERα target genes TFF-1, FIG. 3G) c-Myc, and FIG. 3H) cyclin D1 in BT474 cells were determined by real-time PCR.
FIG. 7A) Six HER2-targeting RNA aptamers were selected from previous literatures, and their secondary structures were predicted using Srna-fold software. FIG. 7B) Six p2 strands containing the six different HER2 RNA aptamers were synthesized and annealed with the same p1 strand to generate six different pRNA-HER2apt-MED1 siRNA nanoparticles, respectively, followed by examination using 8% native PAGE gel electrophoresis. FIG. 7C) BT474 cells were treated with above pRNA nanoparticles for 48 h, and then MED1 protein level was determined by western blotting. […] FIG. 7D) 1 μg pRNA nanoparticles were incubated with recombinant Dicer enzyme (Genlantis) at 37° C. for 12 h, the product was separated by 8% native PAGE gel.
FIG. 9A) BT474 cells were treated with different concentrations of pRNA nanoparticles as indicated for 48 h. After that, MED1 protein level was determined by western blots, and FIG. 9B) the cell viability was determined by MTT assay.
Cell culture. Human breast cancer luciferase-overexpressing BT474 and MDA-MB-231 cells were maintained in DMEM medium (Hyclone, Thermo Scientific) supplemented with 10% fetal bovine serum (FBS, Sigma) and 1% penicillin/streptomycin (Corning) at 37° C. in a humidified atmosphere with 5% CO2.^53 • Generation of pRNA nanoparticles. The two strands of pRNA were synthesized with the DNA templates, which were amplified with overlapping primers (Sigma) by PCR methods, using a T7 promoter-controlled in vitro RNA transcription system as previously described^33 (Table 1). All the CTP and UTP used for synthesis of the pRNA nanoparticles were 2′-fluoro modified, except the control unmodified pRNA nanoparticles used in the stability assays. Following an overnight transcription at 37° C., RNA strands were purified using RNA clean and concentrator kits (ZYMO research) and examined by 8 M urea denatured 8% PAGE gel. pRNA nanoparticles were assembled by mixing the equal molar amounts of p1 and p2 strands and gradually annealing from 90° C. to 20° C. in 1×RNA annealing buffer containing 50 mM Tris-HCl (pH 7.5), 50 mM NaCl and 1 mM EDTA on a PCR machine. […] The hydrodynamic diameter and Tm value of pRNA nanoparticles were determined using dynamic light scattering and TGGE assay, respectively, as previously described.^54 The AFM imaging of the pRNA nanoparticles was performed at the University of Nebraska Medical Center imaging facility as previously reported.^55 Briefly, the pRNA nanoparticles (5 μL) were deposited on APS modified mica ^56 for a total of 2 min of incubation time. […]

Molecule | dose dependence of decrease of MED1 protein level (BT474, different concentrations) | MED1 protein level (BT474, direct incubation) | MED1 protein level after transfection with lipofectamine 2000
B1 | dose-dependent manner | greatly reduced | MED1 silencing
B2 | – | – | MED1 silencing
